In US20130101617A1 one finds infection of CF2.CD4.CCR5 target cells data, which are given here for 1 substance.

The target in experiment [1] is CD4 on CF2.CD4.CCR5 cells (Homo sapiens (Human)) (UniProt P01730).
The target of experiment [2] is CCR5 on CF2.CD4.CCR5 cells (Homo sapiens (Human)) (UniProt P51681).

Regarding JR-FL SOS gp120/gp41 trimer, the infection of CF2.CD4.CCR5 target cells in experiment [1] and in experiment [2] was 100 % of mock throughout.
